Test results taken from FireProtDB (doi:10.1093/protein/11.3.213).

Conditions: Escherichia phage lambda; pH 6.6; 25 °C; Thermal; Fluorescence; phosphate 0.1 M; reversible: yes; whole UniProt chain shown

B1: Endolysin wild type, P03706 (protein)
chain: MVEINNQRKAFLDMLAWSEGTDNGRQKTRNHGYDVIVGGELFTDYSDHPRKLVTLNPKLKSTGAGRYQLLSRWWDAYRKQLGLKDFSPKSQDAVALQQIKERGALPMIDRGDIRQAIDRCSNIWASLPGAGYGQFEHKADSLIAKFKEAGGTVREIDV
With B1 the unfolding free energy was 14.8 kJ/mol.
